{"source": "paper PMC6021402", "about": "“Dissecting ribosomal particles throughout the kingdoms of life using advanced hybrid mass spectrometry methods” (Nature Communications, 2018)", "binders": {"B1": {"name": "chloroplastic ribosomal protein L12 from S. oleracea (natural protein, S. oleracea (spinach), UniProt P02398 57-189, looked up)", "chain": "AVEAPEKIEQLGTQLSGLTLEEARVLVDWLQDKLGVSAASFAPAAAVAAPGAPADAAPAVEEKTEFDVSIDEVPSNARISVIKAVRALTSLGLKEAKELIEGLPKKLKEGVSKDDAEDAKKQLEDAGAKVSIV", "notes": "50S ribosomal protein L12, chloroplastic, Spinacia oleracea; Six copies in each stalk complex; also called L7/L12; source: endogenous, in chloroplastic 70S ribosomes purified from spinach leaves (sucrose cushion, sucrose gradient)"}}, "key": {"[1]": {"target": "chloroplastic ribosomal protein L10 from S. oleracea (S. oleracea (spinach))", "assay": "native MS; chloroplastic 70S ribosomes introduced into a QE-UHMR mass spectrometer; intact stalk complexes released by in-source trapping activation and their mass measured; quadrupole isolation and HCD fragmentation ejected a single L12 (pseudo-MS3)"}, "[2]": {"target": "the molecule itself", "assay": "native MS; chloroplastic 70S ribosomes introduced into a QE-UHMR mass spectrometer; intact stalk complexes released by in-source trapping activation and their mass measured; quadrupole isolation and HCD fragmentation ejected a single L12 (pseudo-MS3)"}}}
{"binder": "B1", "values": [{"measurement": "stoichiometry N", "setting": "[1]", "value": 6, "unit": "L12 per L10"}, {"measurement": "binding result", "setting": "[2]", "value": "binds"}]}
